Patent CN114702585A (SHENZHEN BINDEBIO TECH CO LTD, dated 2022)

Target: T1, CD22蛋白 (购自义翘神州) (UniProt P20273 20-687)
T1 construct: Bought recombinant protein; also called CD22蛋白抗原
T1 sequence (looked up): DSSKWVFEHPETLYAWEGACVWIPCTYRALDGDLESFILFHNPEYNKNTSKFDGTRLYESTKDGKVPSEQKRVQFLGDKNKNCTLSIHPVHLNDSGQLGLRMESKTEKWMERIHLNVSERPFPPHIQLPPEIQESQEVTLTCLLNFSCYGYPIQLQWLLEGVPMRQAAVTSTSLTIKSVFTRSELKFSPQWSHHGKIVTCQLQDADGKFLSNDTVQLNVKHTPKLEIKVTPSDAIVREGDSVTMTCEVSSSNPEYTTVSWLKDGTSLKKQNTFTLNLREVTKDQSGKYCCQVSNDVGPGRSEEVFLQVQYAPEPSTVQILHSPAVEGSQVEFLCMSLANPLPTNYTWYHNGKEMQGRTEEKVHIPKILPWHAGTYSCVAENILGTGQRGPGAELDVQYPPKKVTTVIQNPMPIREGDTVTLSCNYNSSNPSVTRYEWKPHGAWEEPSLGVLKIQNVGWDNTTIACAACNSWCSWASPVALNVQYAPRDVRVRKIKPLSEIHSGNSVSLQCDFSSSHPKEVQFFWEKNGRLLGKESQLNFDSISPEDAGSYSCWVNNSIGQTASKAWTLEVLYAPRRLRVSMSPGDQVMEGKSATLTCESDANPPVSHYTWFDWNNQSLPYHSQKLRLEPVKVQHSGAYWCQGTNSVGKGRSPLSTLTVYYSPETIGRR
Test: BLI (OCTET K2), CD22 protein loaded on AHC sensor, 4F6 in solution 500-5.21 nM

B1: 抗CD22的单克隆抗体4F6 (antibody, V domains shown)
VH: EVLLQQSGPELVKPGASVKIPCKASGYTFTDYNMDWVKQSHGKSLEWIGDIDPNNGITIYNQKFKGKATLTIDKSSSTAYMELRSLTSEDTAVYYCARDRYDRGYALDYWGQGTSVTVSS
VL: DIVMTQSPSSLAMSVGQKVTMSCKSSQSLLNSSNQKNYLAWHQQKTGQSPKLLVYFASIRDSGVPDRFIGSGSGTDFTLTINSVQAEDLADYFCQQHYSTPFTFGSGTKLEIK
notes: also called 4F6抗体; CD22单克隆抗体
In the case of B1, the Kd is reported as 3.14 nM.
